Assay: soluble on expression in E. coli; label from the status in PepcDB or PDB records

Sequence | soluble on expression in E. coli
MSLSDQTLQDILRYLTEETGLAPFQVANTVELLREGGTVPFIARYRKERTGELDEVGIRGIEERLAYFTELEERKLTVLKSIEEQGKLTPELADRIRTSRQKTEVEDLYLPYKPKRRTKATIARERGLEPLADLMAAQELTAGTPEEATLPFVDPAGEVPDAAAALEGAGHILAERLADDADARAFVRRLTADQGIFCSRVAADRKGAVTKFEMYYDHREPLKSVPSHRMLAMRRGEKEEVLVLTIEAPTEEILAGLRARIAGRASIFRQLLEGAAEDAYKRLIAPSIEVELRLEAKQRADEAAITVFAQNLRNLLLAPPAGGKRVLGVDPGLRTGSKLAAVDGTGRFLEHVTIYPHAGGEGKVAAAKREFLRLVECHGIEMVAVGNGTAGREMEQFAKETLAEGGKRIPVVMVSEAGASVYSASEIAREEFPDLDLTVRGAISIARRLQDPLAELVKIDPKSIGVGQYQHDVDQRALKKSLDAVVESCVNYVGVDLNTASWALLSYVSGVGPSLARAIVRHRDEHGPFPARRALMKVPRFGDKAFEQAAGFLRIRGGEHPLDATAVHPERYPVVEAMATDLGVSLSQLAADPALPARIDLKRYVTDAVGLPTLRDIMEELKKPGRDPREEFRTAAFRDDVTEIGDLKEGMVLQGVVTNVTAFGAFVDVGVHQDGLVHVSHLSVKFVKDPAEAVRVGQVVQVKVLSVDVQRKRISLSIREAAPGGAPRSTEGHHHHHH | soluble
MGSDKIHHHHHHMRDQADRLREMALNLKQEIEAEIRRDLRYSRVVVISSGKGGVGKSTLALNLSLNLCARGMKIILMDADMGLANLDVMLGLVTKFNIYHIVQQKKSMEEITISGPEGLKIIPGGSGISELANLENTELKRILVELRKLDGAYDYMIIDTGAGISKSVMNFLLAAEDIIVITTPEPTAITDAYSLVKNVAKNSFAGSIYLVVNKVANDSEGILVAEKFKLVCQKFLSCEIKPLGHIVNEPLIGEGIRRQKAFVQIYPRSTATRNINTIVDRLIEASGQKSPGLESKRGGIRYFIEKIAGLVK | not soluble
MKEVLFISEMERGRAEIESRVSNIKTTQDFGYREKIKEKKDASTAYAACISELLLEEKVKKIAVAYDFPIFYSNYLTEAGFTIVPVKSPFRKMRSVKGPEEIEAIKYAQMAGEKAMEAAITLIADAEEKDGVLYFEGQVLTGAKVNSVIDHTLLDFGCEAEETIVSCGEDTSNPHGTTEGPLRANAPIILDIFPRSKKKRYFADMTRTVLRGEASEKLKEMYETVLVAQQKALEMVKPGIHSSEIHRAVCDLFEARGYHTYRSGSKAGFTHSTGHGVGLDIHELPSVGESGVLLETGNVITIEPGLYYPGIGGIRLEDMVLVTKTGYENFTGLEKKFVLKSFYNLEHHHHHH | not soluble
MGHHHHHHMRSYEKSKTAFKEAQKLMPGGVNSPVRAFKSVDMDPIFMERGKGSKIFDIDGNEYIDYVLSWGPLILGHTNDRVVESLKKVAEYGTSFGAPTEVENELAKLVIDRVPSVEIVRMVSSGTEATMSALRLARGYTGRNKILKFEGCYHGHGDSLLIKAGSGVATLGLPDSPGVPEGIAKNTITVPYNDLESVKLAFQQFGEDIAGVIVEPVAGNMGVVPPQEGFLQGLRDITEQYGSLLIFDEVMTGFRVDYNCAQGYFGVTPDLTCLGKVIGGGLPVGAYGGKAEIMEQIAPSGPIYQAGTLSGNPLAMTAGLETLKQLTPDSYKNFIKKGDRLEEGISKAAEAHGIPHTFNRAGSMIGFFFTNEPVINYETAKASDLKLFASYYKGMANEGVFLPPSQFEGLFLSTAHTDEDIENTIQAAEKVFAEISRR | soluble
MKIMEINVEHILDCLDQYGKGELTEEQLVKALTYDEKMFLIMHQGLLGENSDSEDDFDVQDWLEEEESFFMVVEVNENLCRQAESVLEEIGVEMPDAIEGFLNQLVEKKQFPVVINS | not soluble
SEEASTGTMVLLWAGGFQKVGGEQVSPLTGEVTRHRDRNIPYNLPVPSHPSNWVPLAAEVGPDSCDCGGPAPGLLLLLTRPHDPQFTVPSGWGRQLCPGHALLDEPLLPETGGHPVCERVGHPAPSGPPDLLGLAAGHVLCRVRHDTPVRIPGTGSGCVCTHPAVQWQADLLPHLTLWPNPGQGTVRTSVRNSGHTEEQQVGLS | soluble
MTPFTVDILIPIWNRPVETRNCLVTLMETTPSARLILIDNGSDRETERLLEEFSEILGERALFLKTSANQGFVRAVNRSLAQVEAPYAVVMQNTTLVTRGWLEPMVELADSRPDAGIIVPRLELEDGQGRRPKAAPPAGPVTEVSHGSFAASMVRRELVERQGGFDEELDGGPWCLRDYSRRAFRNGFLTLALDGAVVTYAEEVPLGSVARREETVRRSAETCRARWGREDAFCIYFPKDAEPEAVHGKLDVILRGARMGQCFTLILHPGLHKSLMETGHAPLHSNIALAPLPRFFATGEIRKIIGKLASVRGDTVTVAGVDGLSIPGVEGARSFSWLADEIRRRHESLYRPESP | soluble
TDFIWNLTWMGSTVTNKVLKLTGESPEIIKGVFSIKEGMPINTYYMAKSAGVDPATGAQLYWVYDKDDNGNITNEYISSDYQKAANSKYYSGSRIPDLYGSINTDFSYKNFDLSILGTYSIGGKVYDSLYAGSMEVMYAGNTWNKHALRRWQQPGDITDVPRIQIGGSYTTSDRFLVDASYFAIKNITLGYTIPKQWLKKAGLESVRIFGSVDNLALFSHLDGMDPQYNFKGETDYSYAPNKTYSVGFEINF | not soluble
MSGNTVKLNVGGTVFETLKSTLTKHDGFFKALIETDVPAEKDDSNCFFIDRSPKHFETVLNYMRSGDVVLPDSKKDMLELKKEAEYYLLSNLAKLCQPPTDNFKTCTPEELMRVVANTDKKVIMINYLTYNGELVFYPWGFNLVHFLIQNRDYVEDVYFRRTESQYPEDGPFPNEKPYWTFLVYNSTRSGRRPFRHTVDLEDCMGHM | not soluble
MAHHHHHHMAAADQLRYAAQMIELARSEEREDGNPLTAARCYTTAMEVIASEASKRAAMIESNEARRFFLFQVRSKLEMYHERAELLLQVANGSGLLDKPSLSNGDASALQTNYPPALFASAVANEKSSSGNGGVASCSTGGGVSVLGIPLQPQQMAPSAPPTQTQSSYGDFKEPPMSCYLKPDDDATAEPPPVTPELNLDELMKNLGAPPEL | not soluble
MDFEQLKQDVIAYSKTIGIDKIGFASASPFEELKQRLIQQQQLNYQSGFEEPDIEKRTNPQLLLPGAKSIIAIALAYPSKLKNAPLSKRGERRGIFCRASWGQDYHLVLRDRLQKLEAYLIEKLPDIEVKSMVDTGELSDRAVSERAGIGWSGKNCSIITPEFGSYVYLGEMITNVPFPPDKPIEDQCGGCTKCIDICPTGALIQGGQLDSKKCIAFLTQTKGFLPEEYRDKIGNRIYGCDTCQTVCPKNKGMDFHNHPEMEPDPELVKPLLTPLLTISNRDFKEKYGIMSGSWRGKKPLQRNAILALAHFKEASAIPDLIGVMKDDPRPVLRGTAAWALGKIGGDGVGEAIEKAMEREKDEEVLHEMNRGLELLAQKKE | not soluble
MKQSTIALALLPLLFTPVTKAREVQLQQSGPELVKPGASVKMSCKASGYTFTSYVMHWVKQKPGQGLEWIGYINPYNDGTKYNEKFKGKATLTSDKSSSTAYMELSSLTSEDSAVYYCARGAYKRGYAMDYWGQGTSVTVSSRGGGGSGGGGSGGGGSDLVMSQSPSSLAVSAGEKVTMSCKSSQSLFNSRTRKNYLAWYQQKPGQSPKLLIYWASTRESGVPDRFTGSGSGTDFTLTISSVQAEDLAVYYCKQSYYHMYTFGSGTKLEIKHHHHHGLVPRGSGDPKADNK | soluble
MLSRTLRPISKVLRSSAKYSQAAGLPLNEGSPAPLPSEDRAISAKVSSLVEEIANLSLLDVSDLNWALKKRLNIPDQPLMAAAAAAPAAQAEAEAASDVPQKMTFTVKLTKFDDTKKIAIIKEIRNAIPGLNLVQAKKFVETAPVNVKEDLGKAEADELKAILEKAGATIEIV | not soluble
MDKVYLTWWQVDRAIFALAEKLREYKPDVIIGVARGGLIPAVRLSHILGDIPLKVIDVKFYKGIDERGEKPVITIPIHGDLKDKRVVIVDDVSDTGKTLEVVIEEVKKLGAKEIKIACLAMKPWTSVVPDYYVFRTEKWIVFPWEEFPVIEKE | soluble
MSLGNNYAAKVNDQEISRGQFENAFNSERNRMQQQLGDQYSELAANEGYMKTLRQQVLNRLIDEALLDQYARELKLGISDEQVKQAIFATPAFQVDGKFDNSRYNGILNQMGMTADQYAQALRNQLTTQQLINGVAGTDFMLKGETDELAALVAQQRVVREATIDVNALAAKQPVTEQEIASYYEQNKNNFMTPEQFRVSYIKLVAATMQQPVSDADIQSYYDQHQDQFTQPQRTRYSIIQTKTEDEAKAVLDELNKGGDFAALAKEKSADIISARNGGDMGWLEDATIPDELKNAGLKEKGQLSGVIKSSVGFLIVRLDDIQPAKVKSLDEVRDDIAAKVKHEKALDAYYALQQKVSDAASNDTESLAGAEQAAGVKATQTGWFSKDNLPEELNFKPVADAIFNGGLVGENGASGINSDIITVDGDRAFVLRVSEHKPEAVKPLADVQEQVKALVQHNKAEQQAKVDAEKLLVDLKAGKGAEAMQAAGLKFGEPKTLSRSGRDPISQAAFALPLPAKDKPSYGMATDMQGNVVLLALDEVKQGSMPEDQKKAMVQGITQNNAQIVFEALMSNLRKEAKIKIGDALEQQEGHHHHHH | soluble
MTKPRYNDVLFDDDDSVPSESVTRKSQRRKATSPGESRESSKDRLLILPSMGESYTEYVDSYLNLELLERGERETPIFLESLTRQLTQKIYELIKTKSLTADTLQQISDKYDGVVAENKLLFLQRQYYVDDEGNVRDGRNNDKIYCEPKHVYDMVMATHLMNKHLRGKTLHSFLFSHFANISHAIIDWVQQFCSKCNKKGKIKPLKEYKR | not soluble
MGSDKIHHHHHHMNQEQNDIAIRVSNLSKCYHIYDTPRDRLKQFILPRLHHLTGQTPRQYFREFWALRDVSFEVKKGETIGIIGRNGSGKSTLLQMICGTLNPTSGSITTYGRIAALLELGSGFNPEFTGRENVYMNASVLGLSQEETDARFDDIAAFADIGEFIEQPVKTYSSGMMVRLGFAVQAQVKPDILIVDEALAVGDAKFQAKCFDRLQQLKDGGTSILLVTHSSEQIVTHCSEAILLDGGDVIEHGEPRYVVNHYMDLLFGKERKSYSASAFSTESNSVEPTQDDNLSLNFIDDVFSSHANYNEHEYRWGDGTATILDFYLLTDNEPYPSVITSGQSVVLGVAVRFYEDLVRPILGITIKTKEGVTVYGVNSETLETDEIKVLGSKGTTALIKAEFICRLAPGDYFISLGLATRKGEEIVPHDRRYDAIYLQIAPVTKFFGLVDLGLKLSAQNTSL | not soluble
SLSFTLEEEDITGTWYVKAMVVDKDFPEDRRPRKVSPVKVTALGGGNLEATFTFMREDRCIQKKILMRKTEEPGKFSAYGGRKLIYLQELPGTDDYVFYCKDQRRGGLRYMGKLVGRNPNTNLEALEEFKKLVQHKGLSEEDIFMPLQTGSCVLEH | soluble
MHHHHHHGSMSMPNHQNMLDNQTILITGGTGSFGKCFVRKVLDTTNAKKIIVYSRDELKQSEMAMEFNDPRMRFFIGDVRDLERLNYALEGVDICIHAAALKHVPIAEYNPLECIKTNIMGASNVINACLKNAISQVIALSTDKAANPINLYGATKLCSDKLFVSANNFKGSSQTQFSVVRYGNVVGSRGSVVPFFKKLVQNKASEIPITDIRMTRFWITLDEGVSFVLKSLKRMHGGEIFVPKIPSMKMTDLAKALAPNTPTKIIGIRPGEKLHEVMIPKDESHLALEFEDFFIIQPTISFQTPKDYTLTKLHEKGQKVAPDFEYSSHNNNQWLEPDDLLKLL | soluble
MGSDKIHHHHHHMKRSEKKSMSSALKNGIMERTQPEKVVQMQGTADLSTSKLGTKKYWDELYALELENFRRNPQDTGDCWFSDSDAEQKMIDFLVDNIGAYRISENASVVDLGTGNGHMLFELHQTEFQGKLVGIDYSEESVKLASNIAEATGVDNFISFQQADIFSGDWKPGKYDIVLDKGTLDAISLSGMKINGKLDVVDVYAGVVERILKKDGIFLITSCNFTQDELVKIIETDNLKMWKTIKYPVFQFGGVQGATICSVAFVKQN | not soluble
